The values that follow come from publication PMC10846083.

In series [1] the target is T1, MqsA (Escherichia coli K-12 MG1655) (UniProt Q46864).
T1 sequence: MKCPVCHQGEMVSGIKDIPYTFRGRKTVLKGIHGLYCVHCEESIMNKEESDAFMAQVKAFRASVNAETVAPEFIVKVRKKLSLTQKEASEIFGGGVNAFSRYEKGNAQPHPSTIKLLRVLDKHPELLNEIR
The experiment in a line: EMSA. The note with it: EMSA: 0.25 pmol biotin probe, MqsA titration, 6% polyacrylamide gel in TBE, buffer not given, footprinting: 200 ng FAM probe, 30 min, 25 C. (In EMSA bound probe runs differently from free probe, usually more slowly.)

In series [2] the target is T1, MqsA (Escherichia coli K-12 MG1655). The series can be described thus: DNase I footprinting. The note with it: EMSA: 0.25 pmol biotin probe, MqsA titration, 6% polyacrylamide gel in TBE, buffer not given, footprinting: 200 ng FAM probe, 30 min, 25 C.

Consider “CTGGCGTATGAGGTAATAAAGCGCGTTTGGGAAGGTGAAATGTTGCTGGTAAATGATTCGGAGTCAGCGGGGGAAGGTGTCGGTGCGGATGCCTGACCTGTGGATATAGCGGTTAAAACCTTCACCGGCGTCCGGTTCAAAGTTCCATGCCCGCCAACCATCCGACCTTCGGCATCACGAACTATCAGGCGGACGTGAATGCCCTGGTTTGTGTCAATGTTAATGTCGGTGATACCGGCAGATACCAGTGGCCCTGCTACGCAATC (double strand) [lfgA promoter mutant probe 2 (MP2)]”, for which the binding entry in series [1] is listed as “no binding”.
The same measure, in the same setting: as for “CTGGCGTATGAGGTAATAAAGCGCGTTTGGGAAGGTGAAATGTTGCTGGTAAATGATTCGGAGTCAGCGGGGGAAGGTGTCGGTGCGGATGCCTGACCTGTGGATATAGCGGTTAAAACCTTCTTTTGCGTCATTATCAAAGTTCCATGCCCGCCAACCATCCGACCTTCGGCATCACGAACTATCAGGCGGACGTGAATGCCCTGGTCGTCTTCAATGTTAATGTCGGTGATACCGGCAGATACCAGTGGCCCTGCTACGCAATC (double strand) [lfgA promoter mutant probe 1 (MP)]”, the entry is “binds”.
For the sequence “GATTGCGTAGCAGGGCCACTGGTATCTGCCGGTATCACCGACATTAACATTGAAGACGACCAGGGCATTCACGTCCGCCTGATAGTTCGTGATGCCGAAGGTCGGATGGTTGGCGGGCATGGAACTTTGAACCGGACGCCGGTGAAGGTTTTAACCGCTATATCCACAGGTCAGGCATCCGCACCGACACCTTCCCCCGCTGACTCCGAATCATTTACCAGCAACATTTCACCTTCCCAAACGCGCTTTATTACCTCATACGCCAG (double strand) [FAM-lfgA (yfjY) promoter footprint probe]”, the binding entry in series [2] is listed as “binds”.
As for “GATTGCGTAGCAGGGCCACTGGTATCTGCCGGTATCACCGACATTAACATTGAAGACGACCAGGGCATTCACGTCCGCCTGATAGTTCGTGATGCCGAAGGTCGGATGGTTGGCGGGCATGGAACTTTGAACCGGACGCCGGTGAAGGTTTTAACCGCTATATCCACAGGTCAGGCATCCGCACCGACACCTTCCCCCGCTGACTCCGAATCATTTACCAGCAACATTTCACCTTCCCAAACGCGCTTTATTACCTCATACGCCAG (double strand) [lfgA (yfjY) promoter WT probe]”, in series [1], the binding result is reported as “binds”.
